We go through two substances from patent US20140072582A1.

One may read the EC50 as the concentration that produces a half-maximal response. Read a high EC50 as a need for much substance.

The experiment has as its target complement component C1q human serum (Sigma Cat#:C1740-0.5MG) (human) (UniProt P02745). The experiment is described as follows: ELISA, C1q coated on the plate. (In general: An ELISA detects its analyte on a solid surface through an enzyme-linked reagent.)
Sequence of UniProt P02745 (P02745 23-245 limits assumed, chain 1 of 3): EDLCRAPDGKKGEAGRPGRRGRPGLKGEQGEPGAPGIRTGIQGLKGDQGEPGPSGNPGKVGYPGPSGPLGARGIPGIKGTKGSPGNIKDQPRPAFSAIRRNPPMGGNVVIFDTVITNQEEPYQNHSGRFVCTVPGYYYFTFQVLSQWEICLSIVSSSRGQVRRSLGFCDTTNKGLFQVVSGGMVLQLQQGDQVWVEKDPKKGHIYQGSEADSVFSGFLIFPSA
Sequence of UniProt P02745 (P02746 28-253 limits assumed, chain 2 of 3, further chain): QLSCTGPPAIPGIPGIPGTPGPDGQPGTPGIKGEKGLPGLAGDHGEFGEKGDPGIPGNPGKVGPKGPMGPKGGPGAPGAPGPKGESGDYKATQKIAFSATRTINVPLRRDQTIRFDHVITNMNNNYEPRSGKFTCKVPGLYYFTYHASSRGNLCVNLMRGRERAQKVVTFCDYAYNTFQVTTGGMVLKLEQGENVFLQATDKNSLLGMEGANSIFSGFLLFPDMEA
Sequence of UniProt P02745 (P02747 29-245 limits assumed, chain 3 of 3, further chain): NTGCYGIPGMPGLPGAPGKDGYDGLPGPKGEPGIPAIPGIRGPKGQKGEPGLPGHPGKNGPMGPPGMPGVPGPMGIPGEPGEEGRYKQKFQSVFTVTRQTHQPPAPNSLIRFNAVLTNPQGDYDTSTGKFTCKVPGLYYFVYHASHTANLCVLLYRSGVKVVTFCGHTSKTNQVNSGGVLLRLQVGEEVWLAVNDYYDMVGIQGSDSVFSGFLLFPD

“GB7500 (Adalimumab), anti-TNF monoclonal antibody” yielded a concentration giving a half-maximal response (EC50) of 202 µg/mL. As for “GB4500 (Rituximab), anti-CD20 monoclonal antibody”, the EC50 stood at 34.5 µg/mL. This EC50 is about 5.9-fold lower than that of the substance before.
